The text below walks through data of US20120301394A1 (published 2012).

Assay [1] has as its target T1, Recombinant mouse MMR (R&D systems) (mouse, UniProt Q61830 20-1388).
T1 construct: Bought recombinant extracellular portion of mouse MMR with a C-terminal His tag; It was immobilized on the CM5 chip for SPR and coated on plates for PE-ELISA; The SPR methods say only 'MMR'; also called mMMR; recombinant MMR
T1 sequence: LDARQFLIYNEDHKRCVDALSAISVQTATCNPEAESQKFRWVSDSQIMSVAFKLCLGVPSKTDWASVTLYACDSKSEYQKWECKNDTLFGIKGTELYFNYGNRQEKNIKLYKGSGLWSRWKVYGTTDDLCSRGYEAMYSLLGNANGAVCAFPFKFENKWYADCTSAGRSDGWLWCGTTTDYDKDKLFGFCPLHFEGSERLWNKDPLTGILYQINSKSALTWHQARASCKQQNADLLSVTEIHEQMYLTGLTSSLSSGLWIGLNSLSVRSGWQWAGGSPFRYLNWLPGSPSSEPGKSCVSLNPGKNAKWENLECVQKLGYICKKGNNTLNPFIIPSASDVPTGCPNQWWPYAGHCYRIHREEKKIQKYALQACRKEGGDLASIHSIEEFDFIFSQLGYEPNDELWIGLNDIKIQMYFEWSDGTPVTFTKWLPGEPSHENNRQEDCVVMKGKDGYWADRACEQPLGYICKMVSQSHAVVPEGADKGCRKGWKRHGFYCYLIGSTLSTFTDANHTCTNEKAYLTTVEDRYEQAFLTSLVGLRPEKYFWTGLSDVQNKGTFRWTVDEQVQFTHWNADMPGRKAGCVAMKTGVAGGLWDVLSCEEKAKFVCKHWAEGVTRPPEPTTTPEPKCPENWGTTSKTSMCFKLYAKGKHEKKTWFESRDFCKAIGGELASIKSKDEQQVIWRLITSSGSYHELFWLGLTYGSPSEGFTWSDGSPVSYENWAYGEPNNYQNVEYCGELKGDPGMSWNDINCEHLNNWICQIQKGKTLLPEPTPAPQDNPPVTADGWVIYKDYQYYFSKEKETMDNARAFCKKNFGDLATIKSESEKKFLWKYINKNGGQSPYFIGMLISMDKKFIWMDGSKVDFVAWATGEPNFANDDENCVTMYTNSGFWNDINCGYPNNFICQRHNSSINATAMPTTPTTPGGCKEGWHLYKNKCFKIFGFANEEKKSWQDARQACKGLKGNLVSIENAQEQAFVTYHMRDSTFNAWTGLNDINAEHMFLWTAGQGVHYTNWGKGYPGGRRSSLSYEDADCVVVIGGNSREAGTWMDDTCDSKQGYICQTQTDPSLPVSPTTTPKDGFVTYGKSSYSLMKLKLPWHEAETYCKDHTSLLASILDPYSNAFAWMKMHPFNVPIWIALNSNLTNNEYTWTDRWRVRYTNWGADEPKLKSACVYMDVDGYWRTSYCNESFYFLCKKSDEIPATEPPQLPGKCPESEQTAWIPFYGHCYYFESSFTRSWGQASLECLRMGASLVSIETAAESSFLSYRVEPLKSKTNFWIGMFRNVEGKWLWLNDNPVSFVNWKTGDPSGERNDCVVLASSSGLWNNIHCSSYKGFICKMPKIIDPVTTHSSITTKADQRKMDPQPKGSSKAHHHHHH
Briefly: listed as a cross-reactive Nb; selection by PE-ELISA on mouse MMR (Example 26).

Assay [2] has as its target T2, Recombinant human MMR (R&D systems) (human, UniProt P22897 19-1383).
T2 construct: Bought protein (R&D Systems #2534) coated on ELISA plates; also called hMMR; MRC1
T2 sequence: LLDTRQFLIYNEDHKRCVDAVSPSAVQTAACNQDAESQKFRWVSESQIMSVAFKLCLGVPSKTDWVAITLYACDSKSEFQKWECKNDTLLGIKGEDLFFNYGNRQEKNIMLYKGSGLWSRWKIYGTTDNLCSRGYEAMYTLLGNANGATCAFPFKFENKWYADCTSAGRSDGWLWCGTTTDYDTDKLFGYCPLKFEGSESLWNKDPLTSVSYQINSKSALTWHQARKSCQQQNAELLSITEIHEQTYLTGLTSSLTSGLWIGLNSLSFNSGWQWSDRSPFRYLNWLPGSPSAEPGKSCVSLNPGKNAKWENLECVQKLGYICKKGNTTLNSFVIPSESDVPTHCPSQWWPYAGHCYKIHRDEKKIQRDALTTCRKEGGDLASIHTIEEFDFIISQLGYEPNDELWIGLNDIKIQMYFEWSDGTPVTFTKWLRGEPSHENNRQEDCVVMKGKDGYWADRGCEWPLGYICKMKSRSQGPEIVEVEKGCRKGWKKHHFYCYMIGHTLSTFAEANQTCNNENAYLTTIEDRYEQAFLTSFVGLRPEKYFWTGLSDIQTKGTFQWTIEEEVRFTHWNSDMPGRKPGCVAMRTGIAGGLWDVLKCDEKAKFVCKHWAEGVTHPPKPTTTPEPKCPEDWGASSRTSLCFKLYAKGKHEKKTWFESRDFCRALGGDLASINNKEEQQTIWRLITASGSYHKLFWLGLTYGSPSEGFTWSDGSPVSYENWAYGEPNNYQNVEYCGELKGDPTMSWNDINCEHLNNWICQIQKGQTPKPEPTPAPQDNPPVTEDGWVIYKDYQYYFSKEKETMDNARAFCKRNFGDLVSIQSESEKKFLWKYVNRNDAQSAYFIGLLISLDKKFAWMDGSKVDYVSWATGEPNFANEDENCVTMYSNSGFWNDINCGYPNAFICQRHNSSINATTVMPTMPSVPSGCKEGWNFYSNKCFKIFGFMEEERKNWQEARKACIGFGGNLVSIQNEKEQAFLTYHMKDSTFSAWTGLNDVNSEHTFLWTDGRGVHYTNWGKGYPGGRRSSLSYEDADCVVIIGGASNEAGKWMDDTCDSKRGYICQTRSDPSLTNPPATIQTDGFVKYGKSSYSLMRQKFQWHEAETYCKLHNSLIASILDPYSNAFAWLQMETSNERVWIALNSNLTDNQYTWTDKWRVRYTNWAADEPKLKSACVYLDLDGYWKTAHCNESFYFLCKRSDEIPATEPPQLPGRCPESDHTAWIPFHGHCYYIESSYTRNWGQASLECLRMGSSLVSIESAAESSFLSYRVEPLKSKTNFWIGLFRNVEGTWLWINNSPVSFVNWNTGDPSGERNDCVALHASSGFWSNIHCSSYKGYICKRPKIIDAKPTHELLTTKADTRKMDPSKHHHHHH
Briefly: listed as a cross-reactive Nb; selection by PE-ELISA on human MMR (Example 26). (In general: In an ELISA, binding on a coated surface is turned into a signal by an enzyme label.)

B1: NbhmMMRm26.70 (VHH)
VHH: QVQLQESGGGLVQPGGSLRLSCTASGFPFSSAPMSWVRQAPGKELEWVSYIGYTGTITDYANSVKGRFTISRDNAKNRLYLQMNSLKPEDTAVYFCAQGYARLIADSDLVRGQGTQVTVSS
As to B1, the binding result in assay [1] and in assay [2] was “binds” each time.
